Source: paper PMC10500059, “Allosteric activation of RhlB by RNase E induces partial duplex opening in substrate RNA” (Frontiers in Molecular Biosciences, 2023)
Values belong to the molecule of their own block, whether it stands above or below them.

Tests used:
[1] = biological target: T1, RhlB (E. coli DEAD-box RNA helicase), wild type (E. coli) (UniProt P0A8J8)
T1 sequence: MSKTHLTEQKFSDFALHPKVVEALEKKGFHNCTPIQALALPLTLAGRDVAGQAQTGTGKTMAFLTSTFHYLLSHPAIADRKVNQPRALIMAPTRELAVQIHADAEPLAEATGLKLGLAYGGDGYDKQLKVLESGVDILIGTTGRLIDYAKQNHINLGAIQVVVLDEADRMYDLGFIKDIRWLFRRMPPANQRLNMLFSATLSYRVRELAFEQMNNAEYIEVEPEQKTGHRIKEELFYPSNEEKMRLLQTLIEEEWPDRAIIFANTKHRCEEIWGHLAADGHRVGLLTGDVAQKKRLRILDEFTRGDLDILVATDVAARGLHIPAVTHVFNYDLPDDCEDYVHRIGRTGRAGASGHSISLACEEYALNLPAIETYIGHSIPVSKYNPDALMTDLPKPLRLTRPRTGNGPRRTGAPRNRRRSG

[2] = biological target: T1, RhlB (E. coli DEAD-box RNA helicase), wild type (E. coli); remark: listed apart in the source
[3] = biological target: RhlB;RNase E (694-790) (Escherichia coli;Escherichia coli, UniProt P0A8J8;P21513 1-421;694-790, |); test: NMR (1H imino titration); no ATP; 4.5 mM Mg2+; NMR: 150 mM KCl, 25 mM Tris/HCl, 5 mM DTT, 4.5 mM MgCl2, pH 8.3, 288 K, 100 µM RNA; EMSA: 150 mM NaCl, 25 mM Tris, 1.5 mM MgCl2, 5 mM DTT, 10% glycerol, pH 8.3, 4 C, 1.5 µM RNA; settings: protein: recombinant;recombinant, tags: C-terminal TEV site (ENLYFQG) + 6xHis, His-tag removed by TEV, site remnant left;N-terminal 6xHis-TEV, purified analogously (tag cleaved), copies: 1;1
[4] = biological target: T2, RhlB (Escherichia coli, UniProt P0A8J8 1-421); test: as above; settings: protein: recombinant, tags: C-terminal TEV site (ENLYFQG) + 6xHis, His-tag removed by TEV, site remnant left
T2 sequence: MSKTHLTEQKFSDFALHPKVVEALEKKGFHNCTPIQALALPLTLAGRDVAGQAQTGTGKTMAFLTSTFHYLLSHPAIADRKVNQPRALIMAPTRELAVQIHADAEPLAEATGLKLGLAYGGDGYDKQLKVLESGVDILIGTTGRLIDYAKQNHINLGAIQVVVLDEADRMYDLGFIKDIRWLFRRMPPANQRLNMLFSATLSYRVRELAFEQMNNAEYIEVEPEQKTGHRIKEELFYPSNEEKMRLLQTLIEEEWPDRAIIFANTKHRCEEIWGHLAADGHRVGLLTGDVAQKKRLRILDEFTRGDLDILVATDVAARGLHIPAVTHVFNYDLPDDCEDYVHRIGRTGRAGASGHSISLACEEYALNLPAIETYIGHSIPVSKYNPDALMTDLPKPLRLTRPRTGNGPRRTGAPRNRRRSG

[5] = biological target: T3, RhlB (E. coli DEAD-box RNA helicase), wild type (E. coli, UniProt P0A8J8 1-421); test: cell-based or functional assay
T3 sequence (looked up): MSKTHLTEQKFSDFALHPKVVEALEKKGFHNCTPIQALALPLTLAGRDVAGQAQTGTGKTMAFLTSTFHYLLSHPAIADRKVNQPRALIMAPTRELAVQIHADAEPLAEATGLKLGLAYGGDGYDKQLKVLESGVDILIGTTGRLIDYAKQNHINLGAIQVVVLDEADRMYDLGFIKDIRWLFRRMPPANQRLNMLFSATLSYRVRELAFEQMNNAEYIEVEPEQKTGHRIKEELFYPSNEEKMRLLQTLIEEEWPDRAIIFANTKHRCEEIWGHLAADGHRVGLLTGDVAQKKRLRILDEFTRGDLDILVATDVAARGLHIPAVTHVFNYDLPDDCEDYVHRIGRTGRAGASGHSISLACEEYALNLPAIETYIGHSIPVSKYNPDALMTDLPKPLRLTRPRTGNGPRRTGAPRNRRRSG

[6] = label: none (titration), 3' overhang 8 nt
[7] = label: none (titration), single strand, two weak base pairs under NMR conditions

- ATP turnover of RhlB with 5'-OV RNA, activation factor over RhlB alone, 31P real-time NMR experiment (400 uM RhlB/RNase E 1:1, 100 uM RNA) [1]: 2 fold
- ATP turnover of RhlB with 5'-OV RNA, activation factor over RhlB alone, phosphate assay [1]: 10 fold
- ATP turnover rate of RhlB (EnzChek phosphate assay, 2.4 uM RhlB and RNase E fragment, 6 uM RNA substrates of different topology), fold increase over RhlB alone [2]: < 27 fold
Molecule: RNase E (628-843) (from UniProt P21513 628-843) (domain or fragment)

B1: Blunt duplex 13 nt (dsRNA)
RNA 1: UAGUAACUAAAAC
RNA 2: GUUUUAGUUACUA
- Kd ([3]; label: none, blunt): 488 ± 40.5 µM
- Kd ([4]; label: none, blunt): 155 ± 33.7 µM

B2: 3'-OV duplex (dsRNA)
RNA 1: UAGUAACUAAAACAUUAAAUU
RNA 2: GUUUUAGUUACUA
- Kd [3, 6]: 82.3 ± 27.3 µM
- Kd [4, 6]: 216 ± 33.7 µM

- ATP turnover rate of RhlB (EnzChek phosphate assay, 2.4 uM RhlB and RNase E fragment, 6 uM RNA substrates of different topology), fold increase over RhlB alone [5]: ≤ 6 fold
B3: RNase E (694-790) (domain or fragment, E. coli, UniProt P21513 694-790, looked up)
chain: AKALNVEEQSVQETEQEERVRPVQPRRKQRQLNQKVRYEQSVAEEAVVAPVVEETVAAEPIVQEAPAPRTELVKVPLPVVAQTAPEQQEENNADNRD

Molecule: UAGUAACUAAAACAUUAAAUU (ssRNA) [21 nt single strand]
- Kd [3, 7]: 264.5 ± 1 µM
- Kd [4, 7]: 94.9 ± 59.2 µM

B4: Blunt duplex 21 nt (dsRNA)
RNA 1: UAGUAACUAAAACAUUAAAUU
RNA 2: AAUUUAAUGUUUUAGUUACUA
- Kd ([4]; label: none, blunt): 162 ± 30.3 µM
